The target of the series is Polθ-helicase domain (human, UniProt O75417 1-894). The series is described as follows: EMSA.
Sequence of Polθ-helicase domain (O75417 1-894): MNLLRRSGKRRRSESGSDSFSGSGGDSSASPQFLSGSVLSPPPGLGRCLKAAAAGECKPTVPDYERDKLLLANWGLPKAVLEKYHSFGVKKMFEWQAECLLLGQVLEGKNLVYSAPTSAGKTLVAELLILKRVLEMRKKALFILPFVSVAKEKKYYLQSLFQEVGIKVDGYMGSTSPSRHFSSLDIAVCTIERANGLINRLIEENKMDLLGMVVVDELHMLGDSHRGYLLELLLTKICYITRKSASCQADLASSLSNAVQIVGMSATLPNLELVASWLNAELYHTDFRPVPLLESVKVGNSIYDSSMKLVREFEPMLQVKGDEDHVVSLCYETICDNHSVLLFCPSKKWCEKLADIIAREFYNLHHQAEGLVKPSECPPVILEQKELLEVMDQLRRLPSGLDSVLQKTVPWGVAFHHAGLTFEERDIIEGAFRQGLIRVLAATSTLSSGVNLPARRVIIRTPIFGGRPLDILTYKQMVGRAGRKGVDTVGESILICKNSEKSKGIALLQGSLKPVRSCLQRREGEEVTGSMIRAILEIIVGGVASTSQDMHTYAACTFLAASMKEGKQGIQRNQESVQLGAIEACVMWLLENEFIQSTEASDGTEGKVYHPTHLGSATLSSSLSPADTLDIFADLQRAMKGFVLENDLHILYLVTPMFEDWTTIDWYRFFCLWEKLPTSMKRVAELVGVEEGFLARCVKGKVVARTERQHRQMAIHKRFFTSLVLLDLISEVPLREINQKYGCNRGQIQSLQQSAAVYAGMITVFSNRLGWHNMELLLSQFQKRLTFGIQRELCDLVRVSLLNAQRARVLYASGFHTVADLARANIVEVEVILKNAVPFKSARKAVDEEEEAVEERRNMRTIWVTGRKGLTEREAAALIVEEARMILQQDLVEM

TTTTATATTTTGTTTTGTGTTATTTTTTTCTTTAACAT (ssDNA) [SM76]: the binding result is on record as “binds”.

The values above are taken from paper PMC6047744.
